Like-named read-outs stand apart in the source and are kept apart here.
What was measured:
Assay in all cases: co-sedimentation
[1] = biological target: CA_(14C/45C/E71A) tubes (HIV-1)
[2] = biological target: CA_(14C/45C/E213A) tubes (HIV-1)
[3] = biological target: CA_(14C/45C/E75A) tubes (HIV-1)
[4] = biological target: A14C/E45C disulfide-crosslinked CA tubes (HIV-1)
[5] = biological target: A14C/E45C disulfide-crosslinked CA tubes (HIV-1); remark: listed apart in the source

“MxB_(1–35)-MBPdi (from UniProt P20592 1-35)” was tested, and the binding as percent of WT CA tubes [1] was 60 % of WT, the binding as percent of WT CA tubes [2] was 40 % of WT and the binding as percent of WT CA tubes [3] was 60 % of WT. The percent binding [4] was 80%, the percent bound [4] was greater than 90% and the percent co-pelleted [4] was greater than 90%. The percent binding [5] was 20%.

Source: paper PMC7183857
